Test results as given in US20240400654A1.
Where “and” joins values, the source holds several entries; their conditions need not be identical. Identical values can stand only once.

Biological target: HRgpA-6H (Porphyromonas gingivalis) (UniProt P28784)
Experiment: ELISA, coated HRgpA-6H

Chain of UniProt P28784 (P28784 228-860 limits assumed): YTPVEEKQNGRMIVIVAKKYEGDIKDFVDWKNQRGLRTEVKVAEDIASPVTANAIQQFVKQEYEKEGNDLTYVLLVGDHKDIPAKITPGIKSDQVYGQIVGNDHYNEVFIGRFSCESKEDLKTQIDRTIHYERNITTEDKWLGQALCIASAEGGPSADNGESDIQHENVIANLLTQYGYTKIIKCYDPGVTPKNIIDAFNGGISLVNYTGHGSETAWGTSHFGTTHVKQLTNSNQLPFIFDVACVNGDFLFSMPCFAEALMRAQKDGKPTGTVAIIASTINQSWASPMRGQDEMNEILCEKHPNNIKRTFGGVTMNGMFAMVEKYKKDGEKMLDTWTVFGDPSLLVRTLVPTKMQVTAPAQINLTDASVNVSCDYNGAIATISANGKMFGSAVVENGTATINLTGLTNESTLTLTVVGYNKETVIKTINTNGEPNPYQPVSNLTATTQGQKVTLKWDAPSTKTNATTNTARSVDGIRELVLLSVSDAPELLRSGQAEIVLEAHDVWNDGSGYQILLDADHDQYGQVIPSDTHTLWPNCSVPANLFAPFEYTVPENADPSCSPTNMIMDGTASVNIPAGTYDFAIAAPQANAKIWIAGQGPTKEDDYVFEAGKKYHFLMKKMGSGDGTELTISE

| Binder | OD450 nm | Ratio OD(Variant)/OD(WT) |
| --- | --- | --- |
| KB001 mouse Fab VL Y97E (Fab, V domains shown) VH: EVQLKQSGPGLVAPSQSLSITCTVSGFSLSIYSVHWVRQPPGKGLEWLGMIWGGGSSDYNSALKSRLSISKDNSKSQVFLKMNSLQTDDTAMYYCARNGNFYAMDYWGQGTSVTVSS VL: QIVLTQSPAIMSASLGERVTMTCTASSSVSSSFLHWYQQKPGSSPQLWIYSTSNLASGVPARFSGSGSGTSYSLTISSMEAEDAATYYCHQYHHSPEIYTFGGGTKLEIK | 0.793 | 1 |
| KB001 mouse Fab VL T100W (Fab, V domains shown) VH: EVQLKQSGPGLVAPSQSLSITCTVSGFSLSIYSVHWVRQPPGKGLEWLGMIWGGGSSDYNSALKSRLSISKDNSKSQVFLKMNSLQTDDTAMYYCARNGNFYAMDYWGQGTSVTVSS VL: QIVLTQSPAIMSASLGERVTMTCTASSSVSSSFLHWYQQKPGSSPQLWIYSTSNLASGVPARFSGSGSGTSYSLTISSMEAEDAATYYCHQYHHSPYIYWFGGGTKLEIK | 0.585 | 1.12 |
| KB001 mouse Fab VL T100G (Fab, V domains shown) VH: EVQLKQSGPGLVAPSQSLSITCTVSGFSLSIYSVHWVRQPPGKGLEWLGMIWGGGSSDYNSALKSRLSISKDNSKSQVFLKMNSLQTDDTAMYYCARNGNFYAMDYWGQGTSVTVSS VL: QIVLTQSPAIMSASLGERVTMTCTASSSVSSSFLHWYQQKPGSSPQLWIYSTSNLASGVPARFSGSGSGTSYSLTISSMEAEDAATYYCHQYHHSPYIYGFGGGTKLEIK | 0.603 and 0.597 | 1.15 and 1.14 |
| KB001 mouse Fab VL T100M (Fab, V domains shown) VH: EVQLKQSGPGLVAPSQSLSITCTVSGFSLSIYSVHWVRQPPGKGLEWLGMIWGGGSSDYNSALKSRLSISKDNSKSQVFLKMNSLQTDDTAMYYCARNGNFYAMDYWGQGTSVTVSS VL: QIVLTQSPAIMSASLGERVTMTCTASSSVSSSFLHWYQQKPGSSPQLWIYSTSNLASGVPARFSGSGSGTSYSLTISSMEAEDAATYYCHQYHHSPYIYMFGGGTKLEIK | 0.589 | 1.12 |
| KB001 mouse Fab VL T24L (Fab, V domains shown) VH: EVQLKQSGPGLVAPSQSLSITCTVSGFSLSIYSVHWVRQPPGKGLEWLGMIWGGGSSDYNSALKSRLSISKDNSKSQVFLKMNSLQTDDTAMYYCARNGNFYAMDYWGQGTSVTVSS VL: QIVLTQSPAIMSASLGERVTMTCLASSSVSSSFLHWYQQKPGSSPQLWIYSTSNLASGVPARFSGSGSGTSYSLTISSMEAEDAATYYCHQYHHSPYIYTFGGGTKLEIK | 0.753 and 0.752 and 0.667 | 0.979 and 0.978 and 0.867 |
| KB001 mouse Fab VL T100F (Fab, V domains shown) VH: EVQLKQSGPGLVAPSQSLSITCTVSGFSLSIYSVHWVRQPPGKGLEWLGMIWGGGSSDYNSALKSRLSISKDNSKSQVFLKMNSLQTDDTAMYYCARNGNFYAMDYWGQGTSVTVSS VL: QIVLTQSPAIMSASLGERVTMTCTASSSVSSSFLHWYQQKPGSSPQLWIYSTSNLASGVPARFSGSGSGTSYSLTISSMEAEDAATYYCHQYHHSPYIYFFGGGTKLEIK | 0.552 | 1.05 |
| KB001 mouse Fab VL T100E (Fab, V domains shown) VH: EVQLKQSGPGLVAPSQSLSITCTVSGFSLSIYSVHWVRQPPGKGLEWLGMIWGGGSSDYNSALKSRLSISKDNSKSQVFLKMNSLQTDDTAMYYCARNGNFYAMDYWGQGTSVTVSS VL: QIVLTQSPAIMSASLGERVTMTCTASSSVSSSFLHWYQQKPGSSPQLWIYSTSNLASGVPARFSGSGSGTSYSLTISSMEAEDAATYYCHQYHHSPYIYEFGGGTKLEIK | 0.613 and 0.621 and 0.674 | 1.17 and 1.19 and 1.29 |
| KB001 mouse Fab VL T100R (Fab, V domains shown) VH: EVQLKQSGPGLVAPSQSLSITCTVSGFSLSIYSVHWVRQPPGKGLEWLGMIWGGGSSDYNSALKSRLSISKDNSKSQVFLKMNSLQTDDTAMYYCARNGNFYAMDYWGQGTSVTVSS VL: QIVLTQSPAIMSASLGERVTMTCTASSSVSSSFLHWYQQKPGSSPQLWIYSTSNLASGVPARFSGSGSGTSYSLTISSMEAEDAATYYCHQYHHSPYIYRFGGGTKLEIK | 0.616 | 1.18 |
| KB001 mouse Fab VL T24I (Fab, V domains shown) VH: EVQLKQSGPGLVAPSQSLSITCTVSGFSLSIYSVHWVRQPPGKGLEWLGMIWGGGSSDYNSALKSRLSISKDNSKSQVFLKMNSLQTDDTAMYYCARNGNFYAMDYWGQGTSVTVSS VL: QIVLTQSPAIMSASLGERVTMTCIASSSVSSSFLHWYQQKPGSSPQLWIYSTSNLASGVPARFSGSGSGTSYSLTISSMEAEDAATYYCHQYHHSPYIYTFGGGTKLEIK | 0.741 | 0.964 |
| KB001 mouse Fab VL T100S (Fab, V domains shown) VH: EVQLKQSGPGLVAPSQSLSITCTVSGFSLSIYSVHWVRQPPGKGLEWLGMIWGGGSSDYNSALKSRLSISKDNSKSQVFLKMNSLQTDDTAMYYCARNGNFYAMDYWGQGTSVTVSS VL: QIVLTQSPAIMSASLGERVTMTCTASSSVSSSFLHWYQQKPGSSPQLWIYSTSNLASGVPARFSGSGSGTSYSLTISSMEAEDAATYYCHQYHHSPYIYSFGGGTKLEIK | 0.602 and 0.664 and 0.625 | 1.15 and 1.27 and 1.19 |
| KB001 mouse Fab VL T24K/R18S (Fab, V domains shown) VH: EVQLKQSGPGLVAPSQSLSITCTVSGFSLSIYSVHWVRQPPGKGLEWLGMIWGGGSSDYNSALKSRLSISKDNSKSQVFLKMNSLQTDDTAMYYCARNGNFYAMDYWGQGTSVTVSS VL: QIVLTQSPAIMSASLGESVTMTCKASSSVSSSFLHWYQQKPGSSPQLWIYSTSNLASGVPARFSGSGSGTSYSLTISSMEAEDAATYYCHQYHHSPYIYTFGGGTKLEIK | 0.761 | 0.99 |
| KB001 mouse Fab VL T100H (Fab, V domains shown) VH: EVQLKQSGPGLVAPSQSLSITCTVSGFSLSIYSVHWVRQPPGKGLEWLGMIWGGGSSDYNSALKSRLSISKDNSKSQVFLKMNSLQTDDTAMYYCARNGNFYAMDYWGQGTSVTVSS VL: QIVLTQSPAIMSASLGERVTMTCTASSSVSSSFLHWYQQKPGSSPQLWIYSTSNLASGVPARFSGSGSGTSYSLTISSMEAEDAATYYCHQYHHSPYIYHFGGGTKLEIK | 0.597 and 0.631 | 1.14 and 1.21 |
| KB001 mouse Fab VL T100Y (Fab, V domains shown) VH: EVQLKQSGPGLVAPSQSLSITCTVSGFSLSIYSVHWVRQPPGKGLEWLGMIWGGGSSDYNSALKSRLSISKDNSKSQVFLKMNSLQTDDTAMYYCARNGNFYAMDYWGQGTSVTVSS VL: QIVLTQSPAIMSASLGERVTMTCTASSSVSSSFLHWYQQKPGSSPQLWIYSTSNLASGVPARFSGSGSGTSYSLTISSMEAEDAATYYCHQYHHSPYIYYFGGGTKLEIK | 0.546 | 1.04 |
| KB001 mouse Fab VL T100Q (Fab, V domains shown) VH: EVQLKQSGPGLVAPSQSLSITCTVSGFSLSIYSVHWVRQPPGKGLEWLGMIWGGGSSDYNSALKSRLSISKDNSKSQVFLKMNSLQTDDTAMYYCARNGNFYAMDYWGQGTSVTVSS VL: QIVLTQSPAIMSASLGERVTMTCTASSSVSSSFLHWYQQKPGSSPQLWIYSTSNLASGVPARFSGSGSGTSYSLTISSMEAEDAATYYCHQYHHSPYIYQFGGGTKLEIK | 0.586 and 0.596 and 0.604 | 1.12 and 1.14 and 1.15 |
| KB001 mouse Fab VL T100L (Fab, V domains shown) VH: EVQLKQSGPGLVAPSQSLSITCTVSGFSLSIYSVHWVRQPPGKGLEWLGMIWGGGSSDYNSALKSRLSISKDNSKSQVFLKMNSLQTDDTAMYYCARNGNFYAMDYWGQGTSVTVSS VL: QIVLTQSPAIMSASLGERVTMTCTASSSVSSSFLHWYQQKPGSSPQLWIYSTSNLASGVPARFSGSGSGTSYSLTISSMEAEDAATYYCHQYHHSPYIYLFGGGTKLEIK | 0.587 and 0.566 | 1.12 and 1.08 |
